Reference: patent publication US20230235054A1 (BIOATLA, published 2023)

T1: human Nectin-4 on cells (human, UniProt Q96NY8 32-510)
T1 construct: whole, on cells; also called HEK293 cells expressing human Nectin-4; T47D cells that express human Nectin-4
T1 sequence (looked up): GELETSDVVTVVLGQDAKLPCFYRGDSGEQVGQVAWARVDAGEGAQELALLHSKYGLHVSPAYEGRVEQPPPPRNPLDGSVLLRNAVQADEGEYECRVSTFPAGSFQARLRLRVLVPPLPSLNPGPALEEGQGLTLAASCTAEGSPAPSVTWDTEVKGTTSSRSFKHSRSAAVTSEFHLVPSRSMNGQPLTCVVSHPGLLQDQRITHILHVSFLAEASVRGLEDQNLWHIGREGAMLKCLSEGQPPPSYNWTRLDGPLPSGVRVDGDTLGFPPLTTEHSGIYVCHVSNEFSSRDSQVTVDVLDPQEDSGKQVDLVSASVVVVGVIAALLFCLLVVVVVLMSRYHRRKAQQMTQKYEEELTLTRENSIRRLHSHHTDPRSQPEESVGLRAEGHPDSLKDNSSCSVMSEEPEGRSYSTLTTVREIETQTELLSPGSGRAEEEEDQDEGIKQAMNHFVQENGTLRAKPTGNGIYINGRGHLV

T2: cynoNectin4-mFc (cyno, UniProt A0A2K5WES1 32-349)
T2 construct: Immobilized on the SPR chip; also called cyanoNectin4; not shown: mFc (mouse Fc)
T2 sequence: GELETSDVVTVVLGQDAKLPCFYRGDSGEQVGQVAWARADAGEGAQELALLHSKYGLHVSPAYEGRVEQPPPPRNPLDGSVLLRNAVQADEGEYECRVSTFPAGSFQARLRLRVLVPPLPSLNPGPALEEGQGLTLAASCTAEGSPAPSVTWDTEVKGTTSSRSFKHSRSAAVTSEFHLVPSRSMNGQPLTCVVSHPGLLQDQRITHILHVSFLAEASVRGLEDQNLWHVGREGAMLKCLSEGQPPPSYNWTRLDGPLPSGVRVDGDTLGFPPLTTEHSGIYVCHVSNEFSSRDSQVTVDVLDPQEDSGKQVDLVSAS

T3: cyno Nectin-4 on cells (cyno, UniProt A0A2K5WES1 32-510)
T3 construct: whole, on cells; also called HEK293 cells expressing cyno Nectin-4; cyno Nectin-4 cells
T3 sequence: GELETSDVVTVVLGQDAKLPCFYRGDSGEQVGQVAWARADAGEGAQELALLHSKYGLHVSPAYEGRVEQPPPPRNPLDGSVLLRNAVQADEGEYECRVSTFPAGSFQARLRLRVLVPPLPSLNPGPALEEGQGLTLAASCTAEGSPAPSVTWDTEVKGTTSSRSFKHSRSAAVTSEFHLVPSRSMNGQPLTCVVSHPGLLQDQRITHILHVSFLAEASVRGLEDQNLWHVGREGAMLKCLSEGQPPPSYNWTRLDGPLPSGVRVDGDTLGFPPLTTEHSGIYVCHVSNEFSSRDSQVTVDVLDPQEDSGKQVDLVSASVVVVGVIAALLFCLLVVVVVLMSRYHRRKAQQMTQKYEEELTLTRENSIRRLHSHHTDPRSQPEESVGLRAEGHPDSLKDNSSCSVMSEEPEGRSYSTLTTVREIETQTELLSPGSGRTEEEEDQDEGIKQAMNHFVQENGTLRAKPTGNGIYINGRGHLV

T4: huNectin4-His (human, UniProt Q96NY8 32-349)
T4 construct: Immobilized on the SPR chip; also called humanNectin4; human Nectin4; not shown: His tag
T4 sequence (looked up): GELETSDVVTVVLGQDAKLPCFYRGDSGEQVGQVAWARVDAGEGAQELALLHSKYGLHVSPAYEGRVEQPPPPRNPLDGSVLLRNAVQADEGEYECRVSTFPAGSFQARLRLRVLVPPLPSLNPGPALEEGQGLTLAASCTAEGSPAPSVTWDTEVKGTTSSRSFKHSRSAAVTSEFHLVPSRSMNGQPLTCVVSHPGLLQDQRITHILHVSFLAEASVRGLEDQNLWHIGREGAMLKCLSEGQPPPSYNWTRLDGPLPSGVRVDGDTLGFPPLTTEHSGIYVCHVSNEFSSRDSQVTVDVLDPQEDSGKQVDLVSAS


What was measured:
human Nectin-4 on cells [1] = target: T1, human Nectin-4 on cells; assay: FACS, T47D cells
cynoNectin4-mFc = target: T2, cynoNectin4-mFc; assay: SPR, cynoNectin4-mFc immobilized, pH 6.5
Procedure: (§1) Binding kinetics of anti-Nectin4 antibodies were measured by surface plasmon resonance using a SPR2/4 instrument (Sierra Sensors, Hamburg, Germany) and flat amine sensor chips. The SPR sensor contained four flow cells (FC1-FC4), each of which was addressed individually or in groups. huNectin4-His was immobilized in FC2, and cynoNectin4-mFc in FC4. No protein was immobilized in FC1 and FC3 which were used as control surfaces for FC2 and FC4, respectively.
(§2) All injections were done at a flow rate of 25 μL/min at 25° C. The sensor surface was activated with 1-ethyl-3-(3-dimethylaminopropyl)-carbodiimide (EDC) and N-hydroxysuccinimide (NHS) (200 mM/50 mM) for 480 seconds. HuNectin4-His (2 μg/mL in 10 mM NaAc, pH4.5) was injected for 480s and the surface was inactivated by injecting 1M ethanolamine-HCl for 480s. CynoNectin4 was immobilized using the same conditions as described for huNectin4-His, except that the cynoNectin4 was diluted into 10 mM NaAc buffer having pH 5.0. The control surface was activated and deactivated using the same conditions, but without injecting protein. PBST buffer (PBS pH 7.4 with 0.05% TWEEN20™) was used as running buffer for the surface preparation. The running solution was switched to PBST with 30 mM sodium bicarbonate with the pH adjusted as indicated in the figures before the analyte injections. The instrument was equilibrated with the running solution for one hour before the first analyte injection.
(§3) The off-rate was measured for 360s. The chip surface was regenerated after each cycle of interaction analysis by injecting 6 μL of 10 mM glycine (pH 2.0). Flow cells 1 and 3 without immobilized protein were used as control surfaces for reference subtraction.

cyno Nectin-4 on cells = target: T3, cyno Nectin-4 on cells; assay: FACS, HEK293 cells expressing cyno Nectin-4
human Nectin-4 on cells [2] = target: T1, human Nectin-4 on cells; assay: FACS, HEK293 cells expressing human Nectin-4
Procedure: FACS analysis was carried out using HEK293 cells expressing human Nectin-4.

human Nectin-4 on cells [3] = target: T1, human Nectin-4 on cells; assay: FACS, T47D cells; remark: listed apart in the source
huNectin4-His [4] = target: T4, huNectin4-His; assay: SPR, huNectin4-His immobilized, pH 6.0
Procedure: as §1, §2, §3

huNectin4-His [5] = target: T4, huNectin4-His; assay: SPR, huNectin4-His immobilized, pH 7.4
Procedure: as §1, §2, §3

| Binder | Ratio (pH 7.4/6.0) of EC50 (human Nectin-4 on cells [1]) | Kd (cynoNectin4-mFc) [nM] | koff (cynoNectin4-mFc) [s⁻¹] | kon (cynoNectin4-mFc) [M⁻¹ s⁻¹] | Ratio (pH 7.4/6.0) of EC50 (cyno Nectin-4 on cells) | Ratio (pH 7.4/6.0) of EC50 (human Nectin-4 on cells [2]) | Ratio (pH 7.4/6.0) of EC50 (human Nectin-4 on cells [3]) | Kd (huNectin4-His [4]) [nM] | koff (huNectin4-His [4]) [s⁻¹] | kon (huNectin4-His [4]) [M⁻¹ s⁻¹] | Kd (huNectin4-His [5]) [nM] | koff (huNectin4-His [5]) [s⁻¹] | kon (huNectin4-His [5]) [M⁻¹ s⁻¹] |
| --- | --- | --- | --- | --- | --- | --- | --- | --- | --- | --- | --- | --- | --- |
| BAP-143-00-02 (antibody, V domains shown, Used as a conjugate with a linker payload (CAB ADC)) VH: EVQLVESGGGLVQPGGSLRLSCAASGFTFSSYNMNWVRQAPGKGLEWVSYISSSSSTIYYADSVKGRFTISRDNAKNSLSLQMNSLRDEDTAVYYCARAYYYGMDVWGQGTTVTVSS VL: DIQMTQSPSSVSASVGDRVTITCRASQGISGWLAWYQQKPGKAPKFLIYAASTLQSGVPSRFSGSGSGTDFTLTISSLQPEDFATYYCQQANSEPPTFGGGTKVEIK | 2.9 | 4.71 | 0.00179 | 380000 | 2.3 | 1.6 | – | – | – | – | – | – | – |
| BAP-143-06-24-16 (antibody, V domains shown, Used as a conjugate with a linker payload (CAB ADC)) VH: EVQLVQSGAEVKKPGATVKISCKVSGFTFSSYNMNWIRQSPSRGLEWLGYISSSSSTIYYADSVKGRFTISRDNSKNTLYLQMNSLRAEDTAVYYCARAYYYGDDVWGQGTLVTVSS VL: DIQMTQSPSSVSASVGDRVTITCHASQGISGWLAWYQQKPGKAPKFLIYAASTLQSGVPSRFSGSGSGTDFTLTISSLQPEDFATYYCQQANSFPPTFGGGTKVEIK | – | – | – | – | – | – | 2.9 | – | – | – | – | – | – |
| BAP-143-06-33-03 (antibody, V domains shown, Used as a conjugate with a linker payload (CAB ADC)) VH: QVQLVQSGAEVKKPGASVKVSCKASGFTFSSYNMNWVRQARGQRLEWIGYISSSSSTIYYADSVKGRFTISRDNSKNTLYLQMNSLRAEDTAVYYCARAYYYGMDKWGQGTLVTVSS VL: DIQMTQSPSSVSASVGDRVTITCRASQGISGWLAWYQQKPGKAPKFLIYAASTLQSGVPSRFSGSGSGTDFTLTISSLQPEDFATYYCQQANSEPPTFGGGTKVEIK | – | – | – | – | – | – | 14.8 | – | – | – | – | – | – |
| BAP-143-00-04 (antibody, V domains shown, Used as a conjugate with a linker payload (CAB ADC)) VH: EVQLVESGGGLVQPGGSLRLSCAASGFTFSSYNDNWVRQAPGKGLEWVSYISSSSSTIYYADSVKGRFTISRDNAKNSLSLQMNSLRDEDTAVYYCARAYYYGMDVWGQGTTVTVSS VL: DIQMTQSPSSVSASVGDRVTITCRASQGISGWLAWYQQKPGKAPKFLIYAASTLQSGVPSRFSGSGSGTDFTLTISSLQPEDFATYYCQQANSFPPTFGGGTKVEIK | 2.1 | 1.12 | 0.0018 | 1.6e+06 | 2.1 | 2.1 | – | 2.58 | 0.00155 | 602000 | 1.42 | 0.00525 | 3.71e+06 |
| BAP-143-06-33-16 (antibody, V domains shown, Used as a conjugate with a linker payload (CAB ADC)) VH: EVQLVQSGAEVKKPGATVKISCKVSGFTFSSYNMNWIRQSPSRGLEWLGYISSSSSTIYYADSVKGRFTISRDNSKNTLYLQMNSLRAEDTAVYYCARAYYYGDDVWGQGTLVTVSS VL: DIQMTQSPSSVSASVGDRVTITCRASQGISGWEAWYQQKPGKAPKFLIYAASTLQSGVPSRFSGSGSGTDFTLTISSLQPEDFATYYCQQANSFPPTFGGGTKVEIK | – | – | – | – | – | – | 3.4 | – | – | – | – | – | – |
| BAP-143-07-03-12 (antibody, V domains shown, Used as a conjugate with a linker payload (CAB ADC)) VH: EVQLVESGGGLVQPGGSLRLSCAASGFTFSSYNMNWVRQAPGKGLEWVSYISSSSSTIYYADSVKGRFTISRDNAKNSLSLQMNSLRDEDTAVYYCARAYYYGMDKWGQGTTVTVSS VL: DIQMTQSPSSVSASVGDRVTITCRASQGISGWEAWYQQKPGKAPKFLIYAASTLQSGVPSRFSGSGSGTDFTLTISSLQPEDFATYYCQQANSFPPTFGGGTKVEIK | – | – | – | – | – | – | 4.5 | – | – | – | – | – | – |
| BAP-143-00-06 (antibody, V domains shown, Used as a conjugate with a linker payload (CAB ADC)) VH: EVQLVESGGGLVQPGGSLRLSCAASGFTFSSYNMNWVRQAPGKGLEWVSYISSSSSTIYYADSVKGRFTISRDNAKNSLSLQMNSLRDEDTAVYYCARAYYYGDDVWGQGTTVTVSS VL: DIQMTQSPSSVSASVGDRVTITCRASQGISGWLAWYQQKPGKAPKFLIYAASTLQSGVPSRFSGSGSGTDFTLTISSLQPEDFATYYCQQANSFPPTFGGGTKVEIK | 2.6 | 0.398 | 0.000769 | 1.93e+06 | 3.2 | 1.2 | – | 1.61 | 0.00114 | 707000 | 0.406 | 0.00143 | 3.52e+06 |
| BAP-143-00-05 (antibody, V domains shown, Used as a conjugate with a linker payload (CAB ADC)) VH: EVQLVESGGGLVQPGGSLRLSCAASGFTFSSYNMNWVRQAPGKGLEWVSYISSSSSTIYYADSVKGRFTISRDNAKNSLSLQMNSLRDEDTAVYYCAEAYYYGMDVWGQGTTVTVSS VL: DIQMTQSPSSVSASVGDRVTITCRASQGISGWLAWYQQKPGKAPKFLIYAASTLQSGVPSRFSGSGSGTDFTLTISSLQPEDFATYYCQQANSFPPTFGGGTKVEIK | 2.4 | 3.96 | 0.00237 | 599000 | 2.5 | 1.7 | – | 6.37 | 0.00242 | 380000 | 5.09 | 0.0062 | 1.22e+06 |
| BAP-143-00-03 (antibody, V domains shown, Used as a conjugate with a linker payload (CAB ADC)) VH: EVQLVESGGGLVQPGGSLRLSCAASGFTFSSYNMNWVRQAPGKGLEWVSYISSSSSTIYYADSVKGRFTISRDNAKNSLSLQMNSLRDEDTAVYYCARAYYYGMDVWGQGTTVTVSS VL: DIQMTQSPSSVSASVGDRVTITCRASQGISGWLAWYQQKPGKAPKFLIYAASTLQSGVPSRFSGSGSGTDFTLTISSLQPEDFATYYCQQANSFPDTFGGGTKVEIK | 3.6 | 1.86 | 0.00124 | 668000 | 3.6 | 2 | – | 6.02 | 0.00122 | 203000 | 2.45 | 0.0032 | 1.31e+06 |
